Residue numbers refer to the chain shown, from its start.
B1: ACI-3112H1_3108C10 (bispecific antibody, V domains shown)
VH 1: EVQLQQSGPELVKPGASVKISCKASGYTFSDYFMNWVKQSHGKSLEWIGDINPNNGGSSYIQKFKGKATLTVDKSSTTAYMELRSLTSEDSAVYYCARGSNYAMDSWGQGTSVTVSS
VL 1: DIVMSQSPSSLAVSAGEKVTMSCKSSQSLLNSRTRKNYLAWYQQKPGQSPKLLIYWASTRESGVPDRFTGSGSGTDFTLTISSVQAEDLAVYYCKQSYDLWTFGGGTKLEIK
VH 2: ELQLVESGGGLVRPGGSLKLSCATSGFTFRNYAMSWVRQTPAKRLEWVATISDGGTYTFYSDNVKGRFTISRDNVKNTLYLQMSHLKSEDTAMYYCSRAGSGHWGQGTTLTVSS
VL 2: not shown
notes: biparatopic; Arm A ACI-7079-3112H1-Ab1, Arm B ACI-7079-3108C10-Ab2; engineered constant domains not specified
B2: ACI-3108C10_5A12 (bispecific antibody, V domains shown)
VH 1: B1 VH 2
VL 1: not shown
VH 2: QVHLKQSGADLVRPGASVKLSCKASGYTFTDYYINWVKQRPGQGLEWIARIYPGSGNTYYNEKFKGRATLSAEKSSTTAYMQLSSLTSEDSAVYFCVVGYYGAWGQGTTLTVSS
VL 2: DVVMTQTPLSLPVSLGDQASISCRSSQSLVHSNGKTHLHWYLQKPGQSPKLLIYKVSNRFSGVPDRFSGSGSGTDFTLKISRVEAEDLGVYFCSQSTHVPWTFGGGTKLEIK
notes: biparatopic; Arm A ACI-7079-3108C10-Ab2, Arm B ACI-8033-5A12-Ab1; engineered constant domains not specified
B3: ACI-4301H3_3108C10 (bispecific antibody, V domains shown)
VH 1: B1 VH 1 with S30A, S58T, S59T, I61N, T77N, S100R, S106Y
VL 1: B1 VL 1 with W56S, S73F
VH 2: B1 VH 2
VL 2: not shown
notes: biparatopic; Arm A ACI-7088-4301H3-Ab2, Arm B ACI-7079-3108C10-Ab2; engineered constant domains not specified
B4: ACI-27D8_4301D5 (bispecific antibody, V domains shown)
VH 1: EVQLVESGGGLVQPKGSLKLSCAASGFTFNTYAMNWVRQAPGKGLEWVARIRSKSNNFATYYADSVKDRFTISRDESESMLYLQMNNLKAEDTAMYYCVRSFDYWGQGTTLTVSS
VL 1: DIKMTQSPSSMYASLGERVTITCKASQDINSYLSWFQQKPGKSPKTLIYRAKRLVDGVPSRFSGSGSGQDYSLTISSLEYEDMGIYYCLQYDEFPFTFGSGTKLEIK
VH 2: QVQLQQSGPELVRPGASVKISCKASGYRFTSYYIHWVKQRPGQGLEWIGWIYPGSDNTKHNDKFKGKATLTADTSSSTAYMQLSSLTSEDSAVYFCARDYDVGFGYWGQGTLVTVSS
VL 2: not shown
notes: biparatopic; Arm A ACI-8033-27D8-Ab1, Arm B ACI-7088-4301D5-Ab2; engineered constant domains not specified
B5: ACI-4317A4_1113D10 (bispecific antibody, V domains shown)
VH 1: EVQLQQSGAELVRPGASVKLSCTASGFNIKDDYMHWVKQRPEQGLEWIGWIDPENGDTEYASKFQGKATMTADTSSNTAYLQLSSLTSEDTAVYYCKTWGTTQALFPYWGQGTLVTVSA
VL 1: DIVMTQSQKFMYTSVGDRVSITCKASQNVGNAVGWYQQKAGQSPKLLIHSASNRYTGVPDRFTGTGSGTDFTLTINNMQSEDLADYFCQQYRSYPLTFGAGTKLELK
VH 2: EVQLVESGGGLVQPKGSLKLSCAASGFTFNTYALHWVRQAPGKGLEWVARIRSKSSNYATYYADSVKDRFTISRDDSQSMLYLQMNNLKTEDTGMYYCVRGGVSPFDYWGQGTTLTVSS
VL 2: QIVLTQSPAIMSASPGEKVTMTCSASSSVSYMHWYQQKSGTSPKRWIYDTSKLASGVPARFSGSGSGTSYSLTISSMEAEDSATYYCQQWSNNPPTFGGGTKLEIK
notes: biparatopic; Arm A ACI-7088-4317A4-Ab1, Arm B ACI-7067-1113D10-Ab1; engineered constant domains not specified
B6: ACI-27D8_4317A4 (bispecific antibody, V domains shown)
VH 1: B4 VH 1
VL 1: B4 VL 1
VH 2: B5 VH 1
VL 2: B5 VL 1
notes: biparatopic; Arm A ACI-8033-27D8-Ab1, Arm B ACI-7088-4317A4-Ab1; engineered constant domains not specified
B7: ACI-1108H1_4303A3 (bispecific antibody, V domains shown)
VH 1: EVKLVESGGGLVQPGGSMKLSCTASGFTFSDAWMNWVRQSPEKGLEWVAEIRNKAHNHATNYAESVKGRFTISGDDSKSSVYLQMNNLRAEDTGIYYCTIYSFWGQGTLVTVSA
VL 1: SIVMTQTPKFLLVSAGDRVTITCKASQSVTNYVAWYHQKPGQSPKLLIYSASNRYSGVPDRFTGSGYGTDFTFTINTVQTEDLAVYFCQQDYRIPYTFGGGTKLEIK
VH 2: QVQLQQSGAELVRPGASVTLSCKASGYTFTDYEMHWVKQTPVHGLEWIGVIDPETGGAVQNQKFKGKAILTADNSSSTAYMDLRSLTSEDSAVYNCAMGAALRLAYWGQGTLVTVSS
VL 2: DVLMTQTPLSLPVSLGDQASISCRSSQSIVHSNGNSYLEWYLQKPGQSPKLLIYKVSNRFSGVPDRFSGSGSGTDFTLKINRVEAEDLGVYYCFQGSHVPFTFGSGTKLEIK
notes: biparatopic; Arm A ACI-7067-1108H1-Ab1, Arm B ACI-7088-4303A3-Ab1; engineered constant domains not specified
B8: ACI-1101C8_4301E12 (bispecific antibody, V domains shown)
VH 1: EVQLVESGGGLVQPKGSLKLSCAASGFSFNIYAMNWVRQAPGKGLEWVARIRSKSNNYATYYADSVKDRFTISRADSESMLYLQMNNLKTEDTAMYYCVRVGLRFYAMDYWGQGTSVTVSS
VL 1: B7 VL 2 with S36T, N81S, H98Q, V99G, F101L, S105A, I111L
VH 2: DVQLQESGPGLVKPSQSLSLTCSVTGYSITSGYYWNWIRQFPGNKLEWMGYISDDGSKNYNPSLKNRISITRDTSKNQLFMKLNSVTTEDTATYYCARGDSRLGQGTLVTVSA
VL 2: not shown
notes: biparatopic; Arm A ACI-7067-1101C8-Ab2, Arm B ACI-7088-4301E12-Ab2; engineered constant domains not specified
B9: ACI-1101C8_5A12 (bispecific antibody, V domains shown)
VH 1: B8 VH 1
VL 1: B7 VL 2 with S36T, N81S, H98Q, V99G, F101L, S105A, I111L
VH 2: B2 VH 2
VL 2: B2 VL 2
notes: biparatopic; Arm A ACI-7067-1101C8-Ab2, Arm B ACI-8033-5A12-Ab1; engineered constant domains not specified
B10: ACI-1101C8_4317A4 (bispecific antibody, V domains shown)
VH 1: B8 VH 1
VL 1: B7 VL 2 with S36T, N81S, H98Q, V99G, F101L, S105A, I111L
VH 2: B5 VH 1
VL 2: B5 VL 1
notes: biparatopic; Arm A ACI-7067-1101C8-Ab2, Arm B ACI-7088-4317A4-Ab1; engineered constant domains not specified

The binders below were run against T1, monomeric alpha-synuclein (UniProt P37840 1-140) (assay: SPR, captured bAb).
Protocol: (§1) Any non-covalently bound antibodies were removed by three successive regenerations of 10 mM Glycine pH 1.7 (GE Healthcare, 28-9950-84). Immobilization levels were evaluated following ethanolamine capping (Bound) and finally following regeneration (Final). Non-covalent immobilization of alpha-synuclein biparatopic antibodies on flow cell 2 of channels 1-8 was performed at a final concentration of 5 μg/mL, diluted in 10 mM sodium acetate pH 5.5 (GE Healthcare, BR-1003-52). Non-covalent immobilization of an isotype control antibody on flow cell 1 of channels 1-8 was performed at a final concentration of 5 μg/mL, diluted in 10 mM sodium acetate pH 5.5 (GE Healthcare, BR-1003-52).
(§2) Binding affinity of alpha-synuclein biparatopic antibodies to monomeric or fibrillar alpha-synuclein species was performed using a single-cycle kinetics method. The instrument was primed with 1×HBS-P+ buffer (10× stock from GE Healthcare, BR-1003-52 diluted in Milli-Q water). Injections of monomeric alpha-synuclein (Boston Biochem, SP-485), increasing in concentration from 0.62-50 nM prepared from serial 2-fold dilutions, were performed with contact times of 300 sec/injection at a flow rate of 30 μL/min. A dissociation phase of 900 sec followed the final 50 nM injection. Regeneration of the sensor to the goat anti-human antibody layer was achieved using 3 regenerations of 10 mM Glycine pH 1.7. […] Regeneration of the sensor to the goat anti-mouse antibody layer was achieved using 3 regenerations of 10 mM Glycine pH 1.7. Results obtained from single-cycle kinetics were evaluated by Biacore 8K evaluation software with 1:1 binding homogenous Langmuir model with a preceeding buffer injection as a blank subtraction. The following kinetic parameters were obtained: on-rate (ka), off-rate (kd), affinity constant (KD, ratio of kd by ka), maximum response (Rmax), and goodness of fit (Chi2).
(§3) Kinetic constants were determined from 1:1 homogenous binding models for all cases.

Row | Binder | koff | kon
1 | B1 | 0.0162 s⁻¹ | 5540 M⁻¹ s⁻¹
2 | B2 | 8.05 s⁻¹ | 9.13e+08 M⁻¹ s⁻¹
3 | B3 | 0.0361 s⁻¹ | 1.04e+06 M⁻¹ s⁻¹
4 | B4 | 0.147 s⁻¹ | 1.37e+06 M⁻¹ s⁻¹
5 | B5 | 0.000675 s⁻¹ | 1.39e+06 M⁻¹ s⁻¹
6 | B6 | 0.0283 s⁻¹ | 7.94e+06 M⁻¹ s⁻¹
7 | B7 | 0.00129 s⁻¹ | 1.43e+06 M⁻¹ s⁻¹
8 | B8 | 0.000444 s⁻¹ | 224000 M⁻¹ s⁻¹
9 | B9 | 0.0042 s⁻¹ | 1.1e+06 M⁻¹ s⁻¹
10 | B10 | 0.00158 s⁻¹ | 2.35e+06 M⁻¹ s⁻¹

These binders were tested against T2, alpha-synuclein fibrils (UniProt P37840 1-140) (assay: SPR, captured bAb).
Protocol: as §1, §2, §3

Row | Binder | koff | kon
11 | B1 | 0.000472 s⁻¹ | 7650 M⁻¹ s⁻¹
12 | B2 | 0.000113 s⁻¹ | 10500 M⁻¹ s⁻¹
13 | B3 | 0.000418 s⁻¹ | 8220 M⁻¹ s⁻¹
14 | B4 | 0.000219 s⁻¹ | 13100 M⁻¹ s⁻¹
15 | B5 | 7.77e-06 s⁻¹ | 49200 M⁻¹ s⁻¹
16 | B6 | 5.8e-05 s⁻¹ | 65400 M⁻¹ s⁻¹
17 | B7 | 1.49e-05 s⁻¹ | 73600 M⁻¹ s⁻¹
18 | B8 | 9.65e-07 s⁻¹ | 44900 M⁻¹ s⁻¹
19 | B9 | 6.13e-05 s⁻¹ | 46700 M⁻¹ s⁻¹
20 | B10 | 3e-05 s⁻¹ | 69300 M⁻¹ s⁻¹

Each binder was assayed against T1, monomeric alpha-synuclein (assay: SPR, captured bAb; head says nM, kd/ka gives M).
Protocol: as §1, §2, §3

Row | Binder | Kd
21 | B1 | 2920 nM
22 | B2 | 8.82 nM
23 | B3 | 34.8 nM
24 | B4 | 107 nM
25 | B5 | 0.486 nM
26 | B6 | 3.57 nM
27 | B7 | 0.903 nM
28 | B8 | 1.98 nM
29 | B9 | 3.82 nM
30 | B10 | 0.671 nM

These binders were tested against T2, alpha-synuclein fibrils (assay: SPR, captured bAb; head says nM, kd/ka gives M).
Protocol: as §1, §2, §3

Row | Binder | Kd
31 | B1 | 61.7 nM
32 | B2 | 10.8 nM
33 | B3 | 50.8 nM
34 | B4 | 16.7 nM
35 | B5 | 0.158 nM
36 | B6 | 0.887 nM
37 | B7 | 0.203 nM
38 | B8 | 0.0215 nM
39 | B9 | 1.31 nM
40 | B10 | 0.433 nM
